The values below come from the supplement of paper PMC12042874.

± gives the uncertainty stated by the source.

The data set is described as follows: amyloid nucleation score (Sup35N fusion, yeast selection) (log enrichment); library NNK3; higher = more nucleation; inactive = no reads after selection. Summed up:
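Plasmid inserts were Illumina-sequenced at input and output from psi-negative yeast expressing Sup35N fused to peptides of 20 random codons. The yeast were induced with 100 μM copper sulfate for 24 hours and grown 7 days at 30°C on medium lacking adenine and uracil, and sequences with under 100 input reads were excluded. Nucleation score is the DiMSum log enrichment of output over input reads, centred on the mode score of non-aggregating sequences.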

As for RLTACASYIGINGRSRN, the amyloid nucleation score result was “inactive”.

Consider YSYNQIWFLLV, for which the amyloid nucleation score entry is “inactive”.

Substance TSCFYFAMVFEQVDWDSVHT registered an amyloid nucleation score of 1.58 ± 0.11. In turn, RCVLRW gave an amyloid nucleation score of 1.34 ± 0.12. Consider LVRCSNTR, for which the amyloid nucleation score result is “inactive”.

In the case of RVRDCSHRLLDIFVYLCGNT, the amyloid nucleation score entry is “inactive”. LWYGKYFFIDKRQA showed an amyloid nucleation score of 0.359 ± 0.23. The result for AWKTFFVIYSS reads 0.406 ± 0.19; that for IPSNHSINRCYLDIWAQFLG, “inactive”. As for VFCSSDTAFPEGTTVSSRSR, the amyloid nucleation score result is “inactive”. As for CGAQALAQWYLYLLSHAIQY, the amyloid nucleation score entry is “inactive”.

Take VSNHSIDIGRLRLGFTC: the amyloid nucleation score result was “inactive”. MDVKKRQSSGVALRFELLDG: the amyloid nucleation score result was “inactive”.

For the substance SFHTHRGYNG, the amyloid nucleation score entry was “inactive”. CDFALCSRWQVVYVKKQGQW returned an amyloid nucleation score of 2.1 ± 0.07.

Regarding LMGLCTLI, the amyloid nucleation score result was “inactive”. RRMNISRGSCVELWFRFQWP: the amyloid nucleation score came to 0.163 ± 0.43. The result for SSGKFIVLGRNAWTLAWTLT reads “inactive”. Regarding GLCKS, the amyloid nucleation score result was “inactive”.

Regarding LELRYCLFADPMI, the amyloid nucleation score entry is “inactive”.

Turning to YCFSFAISCNDMRLFFLVNV, the amyloid nucleation score result was “inactive”. FISPVL: the amyloid nucleation score entry is “inactive”. SVIVKAKASTVGDMQAKCRI registered an amyloid nucleation score of 1.1 ± 0.15.

For GAMWLSCT, the amyloid nucleation score result is “inactive”. Consider KFTYSLKLCADFGFLSTWKV, for which the amyloid nucleation score entry is “inactive”.

Turning to YSCSYNTSTN, the amyloid nucleation score was -0.52 ± 0.68. As for SNFINVGSRLMTSWRGYAYM, the amyloid nucleation score result was “inactive”. Take FARVRVNISFPISKSFCNIM: the amyloid nucleation score came to 2.34 ± 0.083.

As to FDMFVLGMGCGILQYLICFK, the amyloid nucleation score result is “inactive”. Take VIVYLFICNADLYFYKMSDF: the amyloid nucleation score was found to be 1.72 ± 0.12. Take KRNRRTISLMTKFIMGKPGY: the amyloid nucleation score entry is “inactive”. Take GYLWVLRLPGVSEFIEMDLQ: the amyloid nucleation score entry was “inactive”. On to STYLGDVSLSFVRVWSVNGS, for which the amyloid nucleation score was determined as 1.29 ± 0.078. Turning to KPMGYYLFDVTTELYDNDWF, the amyloid nucleation score entry is “inactive”. The result for ISWWAMCACSARKVRF reads “inactive”; that for NFAGMFVGLMPWHVCDTTCR, “inactive”; that for REFPRGWLLGLLCFRLYLLE, “inactive”. Consider CDVLYRILRYIYSGKLLFSE, for which the amyloid nucleation score entry was “inactive”. The value for LRCTVRSLAKFVFYRFKTGG was “inactive”; that for NKNQIDQASSWFPR was “inactive”. The value for SEYFWLVWPSA was “inactive”; that for MTFRFNVMLVCLWRATNCFL was “inactive”. For EWKWQSKHTITYFLHHCSEH, the amyloid nucleation score amounted to 0.534 ± 0.15. The result for SGKILQRPLSWLSCVMQVES reads “inactive”; that for CSYAEKIVKGLAPVFLKVN, “inactive”.

Take FNIGFSSDSYAPWLFMICEM: the amyloid nucleation score entry was “inactive”. On to IHPPSGYPGSGLSLCCSKNS, for which the amyloid nucleation score entry was “inactive”. MDIRERRRFFSNIRRVRYLK: the amyloid nucleation score result was “inactive”. The result for RMFKFGTCYKSVGPTKRAEC reads “inactive”.

In the case of PCPLGPYLGYFTETSYAHGM, the amyloid nucleation score entry is “inactive”. Take SVKLKLGLCFPLYVSGFGLL: the amyloid nucleation score entry is “inactive”. In turn, ILFNENITKMSLFNCDKFIC returned an amyloid nucleation score of 1.1 ± 0.15. VWLSRRIVCFRLLVQLNSA: the amyloid nucleation score result is “inactive”. Consider PFTACWVSVADNPYPSNKTG, for which the amyloid nucleation score entry is “inactive”. The value for YWYIIYAMSGLWYSSVNRVD was “inactive”; that for KYEMTIPSSVLRALSNKHWL was -0.539 ± 1.4.

Regarding WYRFPCFFLYCDAWMILNFA, the amyloid nucleation score result was “inactive”. For the substance PRYGEVGATSFSDVTETML, the amyloid nucleation score entry is “inactive”.

Turning to INVPLALLSYGV, the amyloid nucleation score entry was “inactive”.

YKKVLLDSFYSDTWSSQGSR: the amyloid nucleation score entry was “inactive”.

For IANRKSGMKSTRKKESWH, the amyloid nucleation score entry was “inactive”.

On to LLDIC, for which the amyloid nucleation score entry was “inactive”.

Consider MPILLCLVHPPLYSSDPFQK, for which the amyloid nucleation score result is “inactive”. With FANQPGVNYRFTPPSCCFLT, the amyloid nucleation score entry was “inactive”. For HLRVRCLSF, the amyloid nucleation score result was “inactive”. Consider LDVMTCNRLKVTVDFMCMNA, for which the amyloid nucleation score entry was “inactive”. Regarding LAVFFDRD, the amyloid nucleation score result was “inactive”. With MLCAL, the amyloid nucleation score result was “inactive”. As for RYNRA, the amyloid nucleation score entry was “inactive”. PCLFSQDRVRKTRSHKVNAE: the amyloid nucleation score result was “inactive”. In turn, SDKFMLRHHLCWDARSCFQV returned an amyloid nucleation score of 0.348 ± 0.75. Regarding NFWVIPQ, the amyloid nucleation score entry was “inactive”. GGWSARYTNCNLYYTEASGP yielded an amyloid nucleation score of 0.857 ± 0.18. As to IGFAGSVM, the amyloid nucleation score entry is “inactive”. For the substance LNIQFFINLALAEGFLYNRK, the amyloid nucleation score is 2.97 ± 0.084. As for AYMYCVMTGSWVVKIRPGTR, the amyloid nucleation score entry was “inactive”. Substance KVTFKYLLKSVSLGQGTT showed an amyloid nucleation score of 0.341 ± 0.28. Turning to DFLVVYNAMCDKELVDTGEI, the amyloid nucleation score entry was “inactive”. Consider LIVRLDPIFKKIKNK, for which the amyloid nucleation score turned out to be 1.27 ± 0.11.

As to ADFDDHDYLVMCDWWINMHS, the amyloid nucleation score entry was “inactive”. For the substance NLSHDCPPGPAKARYYRNVK, the amyloid nucleation score result is “inactive”. Consider SRQPRCALVVDVPP, for which the amyloid nucleation score result was “inactive”. On to PFCRMKLGMTLRALLLVMGS, for which the amyloid nucleation score result was “inactive”. Regarding ACLSFVYALYPLCLRLIS, the amyloid nucleation score entry was “inactive”. As to SLLSIFVKGARLQISDVSQG, the amyloid nucleation score turned out to be 0.773 ± 0.18. With SLCLYNSFLSSL, the amyloid nucleation score entry was “inactive”. As to CSQIPLHKLTMCMLY, the amyloid nucleation score entry was “inactive”. In the case of GILCCAL, the amyloid nucleation score result was “inactive”. Take MNWGYILLYVWDVSKNRYGF: the amyloid nucleation score result was “inactive”. MFMVHQVDTERW: the amyloid nucleation score entry is “inactive”. The substance CFFIVGLARIFGLVPVA returned an amyloid nucleation score of 0.804 ± 0.12.

In turn, YIIFVNKLSSPYFVT registered an amyloid nucleation score of 1.06 ± 0.19. Take SSTNSYTSSLVSVSLVGDGA: the amyloid nucleation score result is “inactive”. In the case of PLQNKASVRVGCWAML, the amyloid nucleation score entry is “inactive”. The substance HSSVDIQRFCIFYINQCVPK yielded an amyloid nucleation score of 2.45 ± 0.072. For FFYRVSVSLSRAKI, the amyloid nucleation score result was “inactive”.

As for LCALTS, the amyloid nucleation score entry was “inactive”. For the substance TWLMFIFNSRYL, the amyloid nucleation score was 1.51 ± 0.074. The substance RWKLFWIHDR showed an amyloid nucleation score of 1.16 ± 0.14. As for RLIYHRQFFRE, the amyloid nucleation score entry is “inactive”. The result for NSRARSSYRIMNWWLLFDMT reads “inactive”.

TISPFLINMFWLSCTLMSQE: the amyloid nucleation score is 0.558 ± 0.16. With EFGLRWMS, the amyloid nucleation score is 0.447 ± 0.34. The value for NNEYQRKNLWFKGKVWLCMY was “inactive”; that for YLEEARQYNLQRYWKDLKVL was “inactive”; that for VRIMCMSWIVVWHYMC was “inactive”. On to LVICKNINKLISWLSDYSFA, for which the amyloid nucleation score result is “inactive”.

Regarding YWNLIWWAKQWDVFTGEEAL, the amyloid nucleation score result is “inactive”. The result for YLCFLSKMVSYSISYQWSRQ reads “inactive”; that for MHYICAGSGSWAI, “inactive”; that for NNLNQRYYTRHLQSGNLFCS, “inactive”. Consider LSLWMGVEDFVLCGSVNTSR, for which the amyloid nucleation score entry is “inactive”. Regarding NGKWKGWSS, the amyloid nucleation score entry was “inactive”. Consider GRSGYH, for which the amyloid nucleation score entry was “inactive”. Take SYGHLQILKVMAIPSYAFPK: the amyloid nucleation score result was “inactive”. In turn, TVRYVVSASTWHMSLQSPTL returned an amyloid nucleation score of 1.33 ± 0.11.

Turning to IIVLPEKRPR, the amyloid nucleation score result is “inactive”.

In the case of LNKLTKIVVSHKGLCFELGG, the amyloid nucleation score result was “inactive”.

With VIGTGN, the amyloid nucleation score entry was “inactive”.

Take CVRSTCQALGMGRWEPHCAI: the amyloid nucleation score result is “inactive”. Take PSSLVIINNYSYC: the amyloid nucleation score amounted to 3.09 ± 0.073. As to KDSYMSCYKPRYVLPRRIIQ, the amyloid nucleation score result is “inactive”.

For LRYNRDVTS, the amyloid nucleation score result is “inactive”.

KIYIILNGWQVSLIDYYGGK: the amyloid nucleation score came to 2.58 ± 0.056.

YSKSLCVFKSICIELDF displayed an amyloid nucleation score of 2.08 ± 0.062.

In the case of EWFEKIFIRLTGHRTKFYNS, the amyloid nucleation score entry is “inactive”. LWCCEYRNRAATMRVPDPEL: the amyloid nucleation score result is “inactive”. The result for MNVGAIGKSSFMY reads “inactive”; that for MLCHLVMTSSLSRFLDRGFR, 1.26 ± 0.1; that for LETMN, “inactive”. PIFFCFNDVWTGNVVLDAMG yielded an amyloid nucleation score of 3.05 ± 0.058.

Consider SSLGSETRFSYKRVHIENWR, for which the amyloid nucleation score is -0.97 ± 0.9.
